The values below come from patent US20100313281A1 (published 2010).

This data set concerns the molecule itself. As to the kind of experiment: western blot of BHK media, reducing (29 kDa) against non-reducing (49 kDa) conditions. The method, then: Following selection for stable cell transfectants, media isolated from pools was analyzed by western blot under reducing and non-reducing conditions using a Ztgfβ-9 antibody or an anti-EE epitope tag antibody. […] Under non-reducing conditions, Ztgfβ-9 protein migrated as at 49 kDa species. […] C-terminal EE tagged human Ztgfβ-9 expressed in BHK cells was also anti-EE affinity purified and its N-terminal sequence determined.
For orientation: A western blot detects proteins with antibodies after separation by electrophoresis.

B1: Human Ztgfβ-9 protein (ligand)
chain: AGAPRAGRRPARPRGCADRPEELLEQLYGRLAAGVLSAFHHTLQLGPREQARNASCPAGGRPADRRFRPPTNLRSVSPWAYRISYDPARYPRYLPEAYCLCRGCLTGLFGEEDVRFRSAPVYMPTVVLRRTPACAGGRSVYTEAYVTIPVGCTCVPEPEKDADSINSSIDKQGAKLLLGPNDAPAGP
notes: also called transforming growth factor beta-9
Take B1: the binding result is reported as “binds”.
